What was measured:
Assay in all cases: Binding specificity of aptamers in yeast
Design in all cases: key: +++^1 and +^1 represent respectively a full and a partial (see FIG. 1) binding capacity; +++^1 and +^1 represent respectively a full and a partial (see FIG. 1) binding capacity; −−^1 represents a lack of binding
PDZRhoGEF = settings: RhoGEF PDZRhoGEF
Description: (§1) Trx represents the thioredoxin protein with no inserted peptide.
(§2) In order to identify specific inhibitors of TrioGEFD2, a recently developed strategy was used, this strategy being derived from the yeast two hybrid system, where the cDNA library of preys has been replaced by a combinatorial library of short peptides (20 amino acids) in fusion with the bacterial protein thioredoxin A (Colas et al., 1996). This strategy has been successfully used to isolate specific inhibitors of the cyclin-dependent kinases (Cdks), the cell cycle transcription factor E2F, or the viral HPV16 E6 oncoprotein and HBEV core protein (Colas et al., 1996; Butz et al., 2001; Fabrizzio et al., 1999; Geyer et al., 2000). The TrioGEFD2 bait was constructed as follows: plasmid pMTHATrio1848-2298 (Bellanger et al., 1998) was digested with EcoRI/XhoI and the insert cloned in pEG202EcoRI/XhoI to generate the bait pEG202TroGEFD2. Yeast strain EGY048 (Colas et al., 1996) was transformed with pEG202TrioGEFD2 and subsequently with the library of Thioredoxin constrained aptamers according to standard procedures (Ito et al., 1983). After transformation, cells were allowed to recover for 4 hours in galactose containing medium before plating on selective galactose medium. Of the 2×10^6 screened colonies, those growing in the selective medium were recovered and retested for interaction. […] Binding specificity was investigated by screening for interaction with the following baits: TrioDH2 (a.a. 1848-2096), TrioPH2 (a.a. 2107-2223), TrioGEFD1 (a.a. 1232-1629), Dbl (a.a. 498-826), Vav (ala. 172-598) (Zhang et al, 1994), GEFD2 domain of Kalirin (a.a. 1640-1980)(Penzes et al., 2001), p115RhoGEF (a.a. 391-870)(Wells et al, 2002) and PDZRhoGEF (a.a. 964-1362) (Fukuhara et al., 1999). None of these aptamers interacted with other RhoGEF members such as Dbl, Vav, and the RhoA-specific GEFs p115RhoGEF and PDZRhoGEF.

Vav = settings: RhoGEF Vav
Description: as §1, §2

p115RhoGEF = target: T1, p115RhoGEF (Homo sapiens, UniProt Q92888); settings: RhoGEF p115RhoGEF
T1 construct: p115RhoGEF (a.a. 391-870); expressed in transfected cells; host or cells: yeast
T1 sequence (Q92888 391-870): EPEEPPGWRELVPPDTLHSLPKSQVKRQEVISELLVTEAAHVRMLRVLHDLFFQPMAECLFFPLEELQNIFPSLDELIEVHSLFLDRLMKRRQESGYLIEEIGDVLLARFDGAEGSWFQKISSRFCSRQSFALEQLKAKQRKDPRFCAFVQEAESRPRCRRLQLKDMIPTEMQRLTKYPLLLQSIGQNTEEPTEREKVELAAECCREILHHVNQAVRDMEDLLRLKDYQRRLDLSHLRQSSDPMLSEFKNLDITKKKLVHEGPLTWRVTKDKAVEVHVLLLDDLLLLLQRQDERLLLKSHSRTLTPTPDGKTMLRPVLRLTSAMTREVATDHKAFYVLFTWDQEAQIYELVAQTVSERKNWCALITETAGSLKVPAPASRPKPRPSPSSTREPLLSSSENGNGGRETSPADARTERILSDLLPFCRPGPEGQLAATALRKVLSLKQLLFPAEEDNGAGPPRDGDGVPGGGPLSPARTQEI
Description: as §1, §2

Measured: Binding in yeast

B1: TRIAPα: aptamer of 154 amino acids: variable region of 42 amino acids inserted into the thioredoxin protein; tested as GST fusion (protein)
chain: MSDKIIHLTDDSFDTDVLKADGAILVDFWAEWCGPAREGADGAICGYNLATLVMLGPSERVFCPLCEPCSSDIYELMGPCKMIAPILDEIADEYQGKLTVAKLNIDQNPGTAPKYGIRGIPTLLLFKNGEVASATKVGALSKGQLKEFLDANLA
−−^1: all assays above
